Tests used:
[1] = target: T1, KLB (Klotho-beta), as used in the Biacore assay; test: Biacore (data not shown)
T1 construct: The form of KLB in the assay is not described; also called Klotho-β

[2] = target: FGFR4-KLB receptor complex (solid phase binding assay); test: solid phase binding assay on the FGFR4-KLB receptor complex; bound ligand detected with a biotinylated FGF19-specific polyclonal antibody, absorbance at 450 nm
Text: (§1) (B) Binding of M70 to FGFR4 by Biacore. Similar procedures to (A) were used. (C) Solid phase binding of M70 or FGF19 to FGFR4-KLB receptor complex. The bound ligands were detected using a biotinylated FGF19-specific polyclonal antibody. (D) Relative luciferase activity after stimulation with M70 or FGF19 in L6 cells transiently transfected with FGFR4 in the presence or absence of KLB. (E) M70 induces ERK phosphorylation in Hep3B cells. (F) M70 repressed Cyp7a1 expression in primary hepatocytes of mouse, rat, and human origin. Relative expression of Cyp7a1 mRNA in hepatocytes were determined by qRT-PCR and normalized to 18S RNA (mouse and rat) or actin (human) mRNA levels. (G) Repression of hepatic Cyp7a1 expression by M70 in mice. 12-week-old db/db mice were injected intraperitoneally with recombinant M70 or FGF19 protein. Mice were euthanized 4 hours after dosing and hepatic Cyp7a1 expression was evaluated by qRT-PCR and normalized to 18S RNA expression. Dose response curves of Cyp7a1 repression in mice were shown. All values represent mean±SEM.
To elucidate the molecular mechanism that underline M70's inability to induce liver tumors, the interaction of M70 to the known receptor complex of FGF19 was assessed. Surface plasmon resonance (SPR) analysis was used to measure direct binding of M70 or FGF19 to FGFR4. […]

[3] = target: T2, Fc fusion protein of the extracellular domain (ECD) of FGFR4; test: Biacore SPR, ligand flowed over chip coated with FGFR4 ECD-Fc, steady state fit
T2 construct: extracellular domain; Immobilized on Biacore flow cells; also called FGFR4-Fc chimeric protein; FGFR4-Fc
T2 sequence (P22455 22-369): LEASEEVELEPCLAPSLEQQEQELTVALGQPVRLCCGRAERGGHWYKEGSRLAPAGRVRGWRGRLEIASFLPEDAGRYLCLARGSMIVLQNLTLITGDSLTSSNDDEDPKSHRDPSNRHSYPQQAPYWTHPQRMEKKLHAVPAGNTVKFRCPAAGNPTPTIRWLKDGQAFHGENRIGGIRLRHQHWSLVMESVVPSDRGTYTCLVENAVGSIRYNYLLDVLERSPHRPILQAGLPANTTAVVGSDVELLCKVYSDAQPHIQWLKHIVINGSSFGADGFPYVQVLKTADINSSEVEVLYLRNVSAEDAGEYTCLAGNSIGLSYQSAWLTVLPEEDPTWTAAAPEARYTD
Text: as §1, with “FIGS. 9A-9G depicts M70 binding and activation of FGFR4 in vitro. (A) Biacore SPR assay of the interaction between FGF19 and FGFR4-Fc chimeric proteins immobilized on flow cells. […] (B)” for “(B)”
To elucidate the molecular mechanism that underline M70's inability to induce liver tumors, the interaction of M70 to the known receptor complex of FGF19 was assessed. […]

[4] = target: T3, Mouse FGFR4 on cells (L6 cells transfected with FGFR4 alone; primary mouse hepatocytes) (mouse, UniProt Q03142 17-799); test: cell-based or functional assay
T3 sequence (looked up): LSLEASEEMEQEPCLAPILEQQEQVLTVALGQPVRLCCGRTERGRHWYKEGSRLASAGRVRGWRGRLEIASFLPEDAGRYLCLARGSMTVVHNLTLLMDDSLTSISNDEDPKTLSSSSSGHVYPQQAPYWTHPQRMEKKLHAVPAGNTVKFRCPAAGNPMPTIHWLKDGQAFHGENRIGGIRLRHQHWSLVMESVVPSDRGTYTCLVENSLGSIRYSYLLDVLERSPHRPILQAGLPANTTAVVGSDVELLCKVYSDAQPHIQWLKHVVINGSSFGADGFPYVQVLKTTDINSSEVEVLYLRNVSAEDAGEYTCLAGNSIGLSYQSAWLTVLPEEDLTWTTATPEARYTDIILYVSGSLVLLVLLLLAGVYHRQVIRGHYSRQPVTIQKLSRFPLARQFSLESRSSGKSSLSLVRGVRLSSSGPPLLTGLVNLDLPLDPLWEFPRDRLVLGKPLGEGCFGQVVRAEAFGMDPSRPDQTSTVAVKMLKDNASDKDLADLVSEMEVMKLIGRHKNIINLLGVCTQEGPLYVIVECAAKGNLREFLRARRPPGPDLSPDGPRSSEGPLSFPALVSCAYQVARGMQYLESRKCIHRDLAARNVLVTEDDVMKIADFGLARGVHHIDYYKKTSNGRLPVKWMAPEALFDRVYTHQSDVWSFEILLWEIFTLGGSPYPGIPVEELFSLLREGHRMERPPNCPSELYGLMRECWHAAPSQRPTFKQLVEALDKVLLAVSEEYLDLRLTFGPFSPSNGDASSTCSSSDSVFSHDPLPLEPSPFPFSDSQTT

[5] = target: Mouse FGFR4 and mouse KLB co-expressed on rat L6 cells (mouse, UniProt Q03142 17-799; Q99N32 1-1043); test: cell-based or functional assay
Mouse FGFR4 and mouse KLB co-expressed on rat L6 cells, sequence (Q99N32 whole entry, one chain of several): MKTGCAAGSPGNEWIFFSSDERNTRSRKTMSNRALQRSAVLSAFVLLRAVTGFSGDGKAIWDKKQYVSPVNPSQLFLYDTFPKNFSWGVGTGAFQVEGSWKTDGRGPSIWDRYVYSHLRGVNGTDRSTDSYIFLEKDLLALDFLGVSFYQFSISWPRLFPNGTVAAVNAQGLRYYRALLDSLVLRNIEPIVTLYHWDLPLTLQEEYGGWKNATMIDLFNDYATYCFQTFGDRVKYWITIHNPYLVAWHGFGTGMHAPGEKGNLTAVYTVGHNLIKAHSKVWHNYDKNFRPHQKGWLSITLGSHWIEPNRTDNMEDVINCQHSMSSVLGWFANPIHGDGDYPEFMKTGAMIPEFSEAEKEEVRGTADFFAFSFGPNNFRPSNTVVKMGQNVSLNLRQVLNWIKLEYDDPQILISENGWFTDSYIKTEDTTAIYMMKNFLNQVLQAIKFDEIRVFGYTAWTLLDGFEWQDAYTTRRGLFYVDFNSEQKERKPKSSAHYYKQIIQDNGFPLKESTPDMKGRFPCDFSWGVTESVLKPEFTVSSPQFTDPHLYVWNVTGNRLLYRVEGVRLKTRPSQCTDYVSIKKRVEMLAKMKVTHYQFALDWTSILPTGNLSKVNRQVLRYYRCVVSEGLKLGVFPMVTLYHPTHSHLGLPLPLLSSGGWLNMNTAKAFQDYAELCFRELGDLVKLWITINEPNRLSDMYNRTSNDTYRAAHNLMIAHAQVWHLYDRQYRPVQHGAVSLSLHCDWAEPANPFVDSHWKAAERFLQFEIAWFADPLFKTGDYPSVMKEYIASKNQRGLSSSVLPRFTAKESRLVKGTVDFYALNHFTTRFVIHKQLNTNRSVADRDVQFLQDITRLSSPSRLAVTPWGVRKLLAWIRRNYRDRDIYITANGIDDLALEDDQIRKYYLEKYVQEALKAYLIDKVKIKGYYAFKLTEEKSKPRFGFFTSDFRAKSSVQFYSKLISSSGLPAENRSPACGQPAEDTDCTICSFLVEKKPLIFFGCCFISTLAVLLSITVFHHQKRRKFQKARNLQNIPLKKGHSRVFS

[6] = target: Rat FGFR4 on primary rat hepatocytes (rat, UniProt Q498D6 17-800); test: cell-based or functional assay
Rat FGFR4 on primary rat hepatocytes, sequence (Q498D6 17-800): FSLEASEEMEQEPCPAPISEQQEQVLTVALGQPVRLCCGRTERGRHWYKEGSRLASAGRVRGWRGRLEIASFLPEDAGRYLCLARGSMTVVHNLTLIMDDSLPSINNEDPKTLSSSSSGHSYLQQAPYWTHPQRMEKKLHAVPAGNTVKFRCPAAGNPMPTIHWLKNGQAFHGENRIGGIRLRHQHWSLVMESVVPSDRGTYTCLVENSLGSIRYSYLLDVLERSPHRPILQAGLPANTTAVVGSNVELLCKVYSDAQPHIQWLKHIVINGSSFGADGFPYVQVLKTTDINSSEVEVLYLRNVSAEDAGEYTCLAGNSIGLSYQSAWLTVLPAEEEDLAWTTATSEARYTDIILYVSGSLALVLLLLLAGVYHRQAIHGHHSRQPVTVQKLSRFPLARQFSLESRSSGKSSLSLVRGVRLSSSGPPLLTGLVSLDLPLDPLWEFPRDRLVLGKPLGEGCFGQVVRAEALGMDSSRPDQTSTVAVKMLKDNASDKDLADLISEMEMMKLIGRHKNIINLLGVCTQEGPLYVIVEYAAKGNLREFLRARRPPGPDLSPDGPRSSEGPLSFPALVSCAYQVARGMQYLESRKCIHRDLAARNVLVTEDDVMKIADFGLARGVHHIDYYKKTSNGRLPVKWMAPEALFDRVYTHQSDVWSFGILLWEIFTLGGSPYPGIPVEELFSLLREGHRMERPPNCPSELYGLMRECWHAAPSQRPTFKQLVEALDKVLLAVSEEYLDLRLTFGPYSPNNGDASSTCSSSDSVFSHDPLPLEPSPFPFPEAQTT

[7] = target: Human FGFR4 on primary human hepatocytes (human, UniProt P22455 22-802); test: cell-based or functional assay
Human FGFR4 on primary human hepatocytes, sequence (P22455 22-802): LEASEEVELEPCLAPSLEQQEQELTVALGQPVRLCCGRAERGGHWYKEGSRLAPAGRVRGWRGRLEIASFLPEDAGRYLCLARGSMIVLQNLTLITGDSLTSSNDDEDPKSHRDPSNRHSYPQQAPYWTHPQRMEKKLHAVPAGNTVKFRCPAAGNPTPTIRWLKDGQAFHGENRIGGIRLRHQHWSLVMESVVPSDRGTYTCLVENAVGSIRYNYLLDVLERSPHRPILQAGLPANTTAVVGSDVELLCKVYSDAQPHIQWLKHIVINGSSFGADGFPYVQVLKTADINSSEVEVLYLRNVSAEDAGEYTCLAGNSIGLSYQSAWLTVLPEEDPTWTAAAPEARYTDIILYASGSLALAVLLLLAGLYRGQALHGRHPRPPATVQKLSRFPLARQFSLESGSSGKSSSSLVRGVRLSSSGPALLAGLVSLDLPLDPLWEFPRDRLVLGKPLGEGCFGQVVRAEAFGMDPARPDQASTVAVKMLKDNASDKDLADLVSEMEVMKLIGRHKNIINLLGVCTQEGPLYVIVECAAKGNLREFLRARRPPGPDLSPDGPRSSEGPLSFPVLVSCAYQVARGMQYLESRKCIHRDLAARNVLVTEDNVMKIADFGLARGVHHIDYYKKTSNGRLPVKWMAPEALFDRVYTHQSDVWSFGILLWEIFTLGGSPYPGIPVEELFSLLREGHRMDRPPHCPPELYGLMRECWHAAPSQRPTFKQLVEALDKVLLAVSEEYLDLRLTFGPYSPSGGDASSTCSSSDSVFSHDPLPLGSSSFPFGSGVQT

[8] = target: Human FGFR4 and KLB expressed endogenously on Hep3B cells (human, UniProt P22455 22-802; Q86Z14 1-1044); test: cell-based or functional assay
Human FGFR4 and KLB expressed endogenously on Hep3B cells, sequence (P22455 22-802, chain 1 of 2): as the sequence (P22455 22-802) above
Human FGFR4 and KLB expressed endogenously on Hep3B cells, sequence (Q86Z14 whole entry, chain 2 of 2): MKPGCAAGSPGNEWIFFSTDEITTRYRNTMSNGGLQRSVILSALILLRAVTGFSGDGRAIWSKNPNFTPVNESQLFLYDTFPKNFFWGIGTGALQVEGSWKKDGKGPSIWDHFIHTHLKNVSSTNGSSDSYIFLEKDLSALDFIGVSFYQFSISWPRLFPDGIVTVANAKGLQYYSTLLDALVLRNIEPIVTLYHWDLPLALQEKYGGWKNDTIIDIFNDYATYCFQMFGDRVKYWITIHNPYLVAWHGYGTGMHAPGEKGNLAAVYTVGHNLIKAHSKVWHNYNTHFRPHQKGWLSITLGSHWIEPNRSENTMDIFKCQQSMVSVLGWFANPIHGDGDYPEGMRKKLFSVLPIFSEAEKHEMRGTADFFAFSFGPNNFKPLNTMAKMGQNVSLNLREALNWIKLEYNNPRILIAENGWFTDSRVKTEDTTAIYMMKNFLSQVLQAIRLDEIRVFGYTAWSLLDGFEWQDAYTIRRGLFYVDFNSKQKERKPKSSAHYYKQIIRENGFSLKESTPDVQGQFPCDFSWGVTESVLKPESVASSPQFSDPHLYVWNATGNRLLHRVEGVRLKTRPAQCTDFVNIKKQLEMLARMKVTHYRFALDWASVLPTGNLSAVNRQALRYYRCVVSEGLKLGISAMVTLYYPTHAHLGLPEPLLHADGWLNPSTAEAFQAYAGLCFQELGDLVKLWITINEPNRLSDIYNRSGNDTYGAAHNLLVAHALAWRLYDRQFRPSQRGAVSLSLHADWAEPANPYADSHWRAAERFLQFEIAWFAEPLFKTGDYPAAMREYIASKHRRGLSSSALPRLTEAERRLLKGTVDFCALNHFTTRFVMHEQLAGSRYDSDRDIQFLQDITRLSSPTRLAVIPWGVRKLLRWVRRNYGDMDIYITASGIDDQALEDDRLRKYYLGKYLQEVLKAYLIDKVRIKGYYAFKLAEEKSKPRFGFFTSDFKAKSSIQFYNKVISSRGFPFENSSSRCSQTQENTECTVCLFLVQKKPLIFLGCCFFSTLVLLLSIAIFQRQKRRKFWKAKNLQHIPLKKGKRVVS

FGFR4-KLB receptor complex (solid phase binding assay), sequence (chain, as listed by the source, chain 1 of 2): as the sequence (P22455 22-369) above
FGFR4-KLB receptor complex (solid phase binding assay), sequence (chain, as listed by the source, chain 2 of 2): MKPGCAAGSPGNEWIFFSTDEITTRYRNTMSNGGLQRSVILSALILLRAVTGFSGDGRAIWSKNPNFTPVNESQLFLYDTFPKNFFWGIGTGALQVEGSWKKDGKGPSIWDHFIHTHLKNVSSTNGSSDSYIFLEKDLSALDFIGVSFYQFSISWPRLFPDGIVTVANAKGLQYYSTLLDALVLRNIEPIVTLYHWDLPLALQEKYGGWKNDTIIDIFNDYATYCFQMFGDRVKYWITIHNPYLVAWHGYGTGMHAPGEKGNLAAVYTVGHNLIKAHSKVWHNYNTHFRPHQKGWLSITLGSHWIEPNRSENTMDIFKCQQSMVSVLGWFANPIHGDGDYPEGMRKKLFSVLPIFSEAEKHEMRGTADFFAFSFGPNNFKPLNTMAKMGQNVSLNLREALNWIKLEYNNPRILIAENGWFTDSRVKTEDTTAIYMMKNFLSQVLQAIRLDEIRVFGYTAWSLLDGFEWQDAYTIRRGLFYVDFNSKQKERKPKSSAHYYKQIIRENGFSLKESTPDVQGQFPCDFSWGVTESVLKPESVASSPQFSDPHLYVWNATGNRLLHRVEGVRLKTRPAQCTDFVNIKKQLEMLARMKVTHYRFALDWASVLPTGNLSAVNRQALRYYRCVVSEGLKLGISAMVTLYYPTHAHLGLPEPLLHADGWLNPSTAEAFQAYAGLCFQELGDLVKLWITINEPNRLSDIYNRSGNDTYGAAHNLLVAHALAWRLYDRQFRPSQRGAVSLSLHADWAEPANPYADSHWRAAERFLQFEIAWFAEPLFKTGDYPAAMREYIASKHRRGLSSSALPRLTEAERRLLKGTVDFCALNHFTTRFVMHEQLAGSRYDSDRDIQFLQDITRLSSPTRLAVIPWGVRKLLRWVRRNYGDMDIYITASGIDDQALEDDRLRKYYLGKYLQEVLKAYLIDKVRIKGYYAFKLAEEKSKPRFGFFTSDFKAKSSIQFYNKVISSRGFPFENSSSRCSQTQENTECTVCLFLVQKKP

B1: M70 (FGF19 variant carrying 3 amino acid substitutions A30S, G31S, H33L and a 5-amino acid deletion) (ligand)
chain: MRDSSPLVHYGWGDPIRLRHLYTSGPHGLSSCFLRIRADGVVDCARGQSAHSLLEIKAVALRTVAIKGVHSVRYLCMGADGKMQGLLQYSEEDCAFEEEIRPDGYNVYRSEKHRLPVSLSSAKQRQLYKNRGFLPLSHFLPMLPMVPEEPEDLRGHLESDMFSSPLETDSMDPFGLVTGLEAVRSPSFEK
notes: Engineered variant of human FGF19; also called FGF19 variant M70; recombinant M70 protein
- Kd [1]: 0.0241 nM
- EC50 (read off the curve) [2]: ~2 nM
- Kd [3]: 134 nM
- GAL-Elk1 luciferase reporter activity in L6 cells transfected with FGFR4 alone (reduction in potency against FGFR4 plus KLB) [4]: 500 fold
- repression of Cyp7a1 expression in primary mouse hepatocytes (IC50) [4]: 0.00064 nM
- GAL-Elk1 luciferase reporter activity in L6 cells co-expressing FGFR4 and KLB (EC50) [5]: 0.038 nM
- repression of Cyp7a1 expression in primary rat hepatocytes (IC50) [6]: 0.00049 nM
- repression of Cyp7a1 expression in primary human hepatocytes (IC50) [7]: 0.0068 nM
- phosphorylation and activation of ERK in Hep3B cells (EC50) [8]: 0.38 nM
